Assay results taken from the RNAGym collection of RNA variant scans (doi:10.7554/elife.80360).

B1: HDV Ribozyme (parent)
chain: GGCCGGCAUGGUCCCAGCCUCCUCGCUGGCGCCGGCUGGGCAACAUUCCGAGGGGACCGUCCCCUCGGUAAUGGCGAAUGGGACCCA

Variants of: B1
Assay: self-cleavage, relative activity (ratio to wild type); higher = more cleavage; co-transcriptional

Point of comparison: A8U G10C, self-cleavage 0.639. Against it:
- A8G G59U — higher, 0.914
- A8G G67U — higher, 0.978
- A8G G68A — higher, 1.03
- A8G G73U — lower, 0.148
- A8G G76A — higher, 1.09
- A8G G80C — lower, 0.172
- A8G G82U — lower, 0.369
- A8G U9G — higher, 0.831
- A8G U12G — higher, 0.712
- A8G U20A — lower, 0.151
- A8G U20G — lower, 0.151
- A8G U27G — higher, 0.831
- A8G U37A — lower, 0.147
- A8G U46A — higher, 0.723
- A8G U46G — lower, 0.623
- A8G U60G — higher, 1.11
- A8G U65A — higher, 0.89
- A8G U69A — higher, 0.942
- A8G U72G — lower, 0.536
- A8G U79A — higher, 0.692
- A8G U79C — lower, 0.256
- A8U A16G — higher, 0.684
- A8U A42G — lower, 0.111
- A8U A43G — lower, 0.578
- A8U A51G — higher, 0.767
- A8U A51U — higher, 0.787
- A8U A70U — higher, 0.772
- A8U A71C — higher, 0.703
- A8U A71G — higher, 0.917
- A8U A71U — higher, 0.917
- A8U A83C — lower, 0
- A8U A83G — higher, 0.746
- A8U C13A — lower, 0
- A8U C13G — lower, 0
- A8U C14G — lower, 0.237
- A8U C15U — higher, 0.935
- A8U C19A — lower, 0
- A8U C21A — lower, 0
- A8U C22A — lower, 0.0923
- A8U C32U — lower, 0.554
- A8U C33G — lower, 0.0536
- A8U C33U — lower, 0.453
- A8U C41U — lower, 0.594
- A8U C57A — higher, 1.05
- A8U C57G — higher, 1.07
- A8U C61A — higher, 0.831
- A8U C61U — higher, 0.739
- A8U C62A — higher, 0.956
- A8U C62G — lower, 0.287
- A8U C62U — higher, 0.989
- A8U C63G — higher, 0.646
- A8U C63U — higher, 0.862
- A8U C64U — higher, 1.11
- A8U C66A — higher, 1.06
- A8U C84G — lower, 0.462
- A8U C86G — lower, 0.554
- A8U C86U — higher, 0.997
- A8U G11U — lower, 0.201
- A8U G17A — higher, 0.665
- A8U G17U — lower, 0.18
- A8U G25C — lower, 0.277
- A8U G29C — lower, 0.0554
- A8U G31U — lower, 0.0475
- A8U G34C — lower, 0
- A8U G35C — lower, 0.0639
- A8U G39C — lower, 0.166
- A8U G40A — higher, 0.892
- A8U G52C — higher, 0.779
- A8U G59U — higher, 1.04
- A8U G67A — higher, 0.855
- A8U G67U — higher, 0.898
- A8U G74U — lower, 0.173
- A8U G80C — lower, 0.128
- A8U G80U — lower, 0.0715
- A8U G81U — lower, 0.175
- A8U U9G — higher, 0.997
- A8U U23C — lower, 0.532
- A8U U37G — lower, 0.222
- A8U U47C — higher, 0.68
- A8U U60A — higher, 0.939
- A8U U65A — lower, 0.617
- A8U U65G — higher, 0.748
- A8U U69A — higher, 0.962
- A8U U69C — higher, 0.646
- U9A — higher, 1.04
- U9A A43G — higher, 0.712
- U9A A43U — higher, 0.675
- U9A A71C — higher, 1.05
- U9A A77G — higher, 0.751
- U9A A83C — higher, 0.731
- U9A C15A — higher, 0.677
- U9A C19G — lower, 0.0665
- U9A C19U — lower, 0.113
- U9A C21U — lower, 0.155
- U9A C41A — higher, 0.831
- U9A C49A — lower, 0.554
- U9A C49G — higher, 0.88
- U9A C62U — higher, 1.06
- U9A C63G — lower, 0.502
- U9A C66U — higher, 1.01
- U9A C86A — lower, 0.554
- U9A C86G — higher, 1.04
- U9A G10A — higher, 1.03
- U9A G28A — lower, 0.138
- U9A G29C — lower, 0
- U9A G31C — lower, 0.287
- U9A G34A — lower, 0.232
- U9A G35U — lower, 0.264
- U9A G39C — lower, 0.178
- U9A G39U — higher, 0.917
- U9A G40C — lower, 0.325
- U9A G54A — higher, 0.943
- U9A G55U — higher, 0.895
- U9A G67C — higher, 0.831
- U9A G76U — higher, 1.02
- U9A G80U — lower, 0.213
- U9A G81C — lower, 0.35
- U9A U12A — lower, 0.361
- U9A U23C — higher, 1.08
- U9A U37A — lower, 0
- U9A U37G — lower, 0.208
- U9A U47G — higher, 0.772
- U9A U79A — higher, 0.923
- U9C — higher, 1.04
- U9C A16G — higher, 1.51
- U9C A42U — higher, 0.767
- U9C A45U — lower, 0.554
- U9C A51C — higher, 1.49
- U9C A56C — higher, 1.06
- U9C A70U — higher, 0.831
- U9C A77U — higher, 0.867
- U9C A78C — lower, 0.128
- U9C A87G — higher, 1.12
- U9C C14U — higher, 1.11
- U9C C19A — lower, 0.175
- U9C C22A — lower, 0.192
- U9C C26G — higher, 0.886
- U9C C30A — lower, 0.458
- U9C C33G — lower, 0.249
- U9C C41G — higher, 0.831
- U9C C44G — lower, 0.63
- U9C C48A — higher, 0.911
- U9C C57U — higher, 0.95
- U9C C63G — higher, 0.831
- U9C C63U — higher, 0.987
- U9C C64A — higher, 0.831
- U9C C66A — higher, 1.04
- U9C C85A — higher, 0.969
- U9C C86A — higher, 1.03
- U9C G10A — higher, 0.985
- U9C G11A — lower, 0.0755
- U9C G25U — lower, 0.104
- U9C G29C — lower, 0.138
- U9C G29U — lower, 0.115
- U9C G34U — lower, 0.178
- U9C G35A — lower, 0.394
- U9C G35U — lower, 0.135
- U9C G39A — lower, 0.567
- U9C G52A — higher, 1.04
- U9C G52U — higher, 1.06
- U9C G53C — higher, 1.15
- U9C G54C — higher, 1.11
- U9C G54U — higher, 0.937
- U9C G55A — higher, 1.27
- U9C G55C — higher, 0.703
- U9C G55U — higher, 1.2
